Measured values as given in paper PMC8509203, “Members of the GADD45 Protein Family Show Distinct Propensities to form Toxic Amyloid-Like Aggregates in Physiological Conditions” (International Journal of Molecular Sciences, 2021).
One block for each molecule: values may come before it.

How the values were obtained:
[1] = biological target: MKK7 kinase domain (Homo sapiens) (UniProt O14733); assay: SPR; details: cited from earlier work
[2] = biological target: the molecule itself; assay: SEC-MALS; SEC-LS, Superdex S200 10/30 with miniDAWN TREOS; 0.5-1.0 mg loaded; 20 mM Tris-HCl pH 7.5, 100 mM NaCl, 5 mM DTT, 5% glycerol (the results and the legend name only 5 mM DTT in 20 mM Tris-HCl pH 7.5); oligomeric state of the native protein
[3] = biological target: T1, kinase domain of human MKK7 (mitogen-activated protein kinase kinase 7) (human, UniProt O14733 120-380); assay: BLI; biotinylated GADD45 proteins immobilised on super streptavidin (SSA) biosensors (2.5 nm), Octet RED96; MKK7_KD in solution at 9-300 nM; 0.01 M HEPES pH 7.4, 0.15 M NaCl, 3 mM EDTA, 0.005% Surfactant P20, 2 mM DTT; 1:1 binding model; details: both partners purified
T1 construct: MKK7, human, kinase domain; also called MKK7_KD; source: recombinant, obtained as His-fusion protein as previously reported
T1 sequence (looked up): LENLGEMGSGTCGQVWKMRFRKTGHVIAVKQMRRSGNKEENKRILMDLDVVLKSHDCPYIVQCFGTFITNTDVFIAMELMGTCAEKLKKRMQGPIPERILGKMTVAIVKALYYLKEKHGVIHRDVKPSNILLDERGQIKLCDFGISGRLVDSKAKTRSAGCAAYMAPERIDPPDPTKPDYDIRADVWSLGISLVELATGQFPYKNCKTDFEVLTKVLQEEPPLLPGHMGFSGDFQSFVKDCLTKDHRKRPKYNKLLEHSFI

Molecule: GADD45β (from UniProt O75293)
Kd [1]: 6 nM

B1: GADD45γ (growth arrest and DNA damage-inducible 45 gamma) (natural protein, human, UniProt O95257 1-159, looked up)
chain: MTLEEVRGQDTVPESTARMQGAGKALHELLLSAQRQGCLTAGVYESAKVLNVDPDNVTFCVLAAGEEDEGDIALQIHFTLIQAFCCENDIDIVRVGDVQRLAAIVGAGEEAGAPGDLHCILISNPNEDAWKDPALEKLSLFCEESRSVNDWVPSITLPE
modifications: biotin (EZ-Link Sulfo-NHS-LC-Biotinylation Kit), in the BLI experiment only
notes: GADD45γ, human; gene purchased from Sigma Aldrich, cloned into pETM-13 with BamHI and XhoI; Dimeric by SEC-LS; The same construct was used without biotin in SEC-LS and biotinylated in BLI; source: E. coli BL21(DE3), purified (Ni2+-NTA, Superdex 200 SEC)
stoichiometry N [2]: 2

Kd [3]: 2 nM
B2: GADD45β (growth arrest and DNA damage-inducible 45 beta) (natural protein, human, UniProt O75293 1-160, looked up)
chain: MTLEELVACDNAAQKMQTVTAAVEELLVAAQRQDRLTVGVYESAKLMNVDPDSVVLCLLAIDEEEEDDIALQIHFTLIQSFCCDNDINIVRVSGMQRLAQLLGEPAETQGTTEARDLHCLLVTNPHTDAWKSHGLVEVASYCEESRGNNQWVPYISLQER
modifications: biotin (EZ-Link Sulfo-NHS-LC-Biotinylation Kit), in the BLI experiment only
notes: GADD45β, human; cloned into pET-28a+ as previously reported; Monomeric by SEC-LS; The same construct was used without biotin in SEC-LS and biotinylated in BLI; also called Human GADD45β; source: E. coli BL21(DE3), purified (Ni2+-NTA, Superdex 200 SEC)
